These results are taken from patent publication US20150299252A1.

Test [1] concerns the target lectin SNA1 from Sambucus nigra (Sambucus nigra) (UniProt Q41358).
Test [2] addresses lectin MAA from Maackia amurensis (Maackia amurensis) (UniProt P0DKL3). The test is described as follows: solid-phase competition; fetuin against 100 pmoles of SVH1C on streptavidin for peroxidase-conjugated MAA.
Test [3] shares this target. As to the kind of experiment: solid-phase competition; fetuin against SVH1C for MAA.
Test [4] addresses T1, lectin MAA from Maackia amurensis (Maackia amurensis), P0DKL3.
T1 chain: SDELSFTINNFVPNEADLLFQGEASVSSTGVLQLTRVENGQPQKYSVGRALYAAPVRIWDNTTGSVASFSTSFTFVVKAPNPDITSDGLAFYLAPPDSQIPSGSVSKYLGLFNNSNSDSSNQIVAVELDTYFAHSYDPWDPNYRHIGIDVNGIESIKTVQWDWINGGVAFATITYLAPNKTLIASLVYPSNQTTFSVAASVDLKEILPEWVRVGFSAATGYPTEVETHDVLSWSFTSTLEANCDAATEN
As to the kind of experiment: solid-phase assay, peptide titrated into wells containing bound lectin.

Test [5] deals with lectin SNA1 from Sambucus nigra (Sambucus nigra), Q41358. Described as above.

Where no end group is shown, it is not given here.

lectin SNA1 from Sambucus nigra (Sambucus nigra), sequence (Q41358 29-289 limits assumed, chain 1 of 2): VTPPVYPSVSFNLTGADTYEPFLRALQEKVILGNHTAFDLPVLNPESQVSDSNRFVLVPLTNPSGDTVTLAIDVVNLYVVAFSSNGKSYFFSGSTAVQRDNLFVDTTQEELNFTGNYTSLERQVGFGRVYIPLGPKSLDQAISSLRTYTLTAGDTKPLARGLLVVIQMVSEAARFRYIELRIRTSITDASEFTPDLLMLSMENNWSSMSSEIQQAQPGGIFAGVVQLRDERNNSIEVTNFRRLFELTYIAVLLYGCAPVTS
lectin SNA1 from Sambucus nigra (Sambucus nigra), sequence (Q41358 309-570 limits assumed, chain 2 of 2): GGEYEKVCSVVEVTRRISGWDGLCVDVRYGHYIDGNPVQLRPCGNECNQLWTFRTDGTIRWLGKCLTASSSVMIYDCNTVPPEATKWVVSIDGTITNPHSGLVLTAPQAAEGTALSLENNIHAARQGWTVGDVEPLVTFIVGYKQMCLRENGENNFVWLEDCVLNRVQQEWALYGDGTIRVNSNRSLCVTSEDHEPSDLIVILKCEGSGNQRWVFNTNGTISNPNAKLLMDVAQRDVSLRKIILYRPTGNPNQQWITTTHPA
lectin SNA1 from Sambucus nigra (Sambucus nigra), Q41358, sequence (Q41358 29-289 limits assumed, chain 1 of 2): as the sequence (Q41358 29-289 limits assumed, chain 1 of 2) above
lectin SNA1 from Sambucus nigra (Sambucus nigra), Q41358, sequence (Q41358 309-570 limits assumed, chain 2 of 2): as the sequence (Q41358 309-570 limits assumed, chain 2 of 2) above

For the molecule fetuin (from UniProt P12763 19-359), in test [1], the amount of fetuin giving essentially complete inhibition (pmoles of fetuin per well) amounted to 500 and the percent inhibition at 100 pmoles fetuin per well was 50%. In test [2], this molecule had an amount of fetuin giving essentially complete inhibition (pmoles of fetuin per well) of 500 and a percent inhibition at 100 pmoles fetuin per well of 50%. In test [3], this molecule displayed a percent inhibition at a 5-fold molar excess of fetuin over peptide of 90%.

B1: biotinylated SVH1C (quadravalent, C-terminal ε-biotinyl-lysine amide) (peptide)
peptide: NPSHPLSGGGGS
chain: KKKK
modifications: not fully specified (some residues, C-terminus); also: quadravalent: four peptide copies on lysine scaffold
As for B1, the amount of peptide at saturation in test [4] and in test [5] was 100 pmol in each case.
